Biological target: human small ubiquitin-like modifier 1 (human) (UniProt P63165)
Test: SPR (monobody on the chip via His-tag, target flowed); estimated Kd [Continued]

Kd	Binder
652 nM	SEQ ID NO 87 (designed binder) VSSVPTKLEVVAATPTSLLISWDASSSSVSHYHITYGETGGNSPVQEFTVPGSSSTATISGLSPGVDYTITVYAFYSDDDLYFAFSPSSINYRT
2800 nM	SEQ ID NO 92 (designed binder) VSSVPTKLEVVAATPTSLLISWDASSSSVSHYEITYGETGGNSPVQEFTVPGSSSTATISGLSPGVDYTITVTAYDSYYDIYIAYSPSSINYRT
290 nM	SEQ ID NO 88 (designed binder) VSSVPTKLEVVAATPTSLLISWDASSSSVSHYGITYGETGGNSPVQEFTVPGSSSTATISGLSPGVDYTITVYAYHSYDDIYYALSPSSINYRT
3600 nM	SEQ ID NO 94 (designed binder) VSSVPTKLEVVAATPTSLLISWDASSSSVSHYAITYGETGGNSPVQEFTVPGSSSTATISGLSPGVDYTITVYAYYSYDDLYVSDSPSSINYRT
519 nM	SEQ ID NO 89 (designed binder) VSSVPTKLEVVAATPTSLLISWDASSSSVSHYAITYGETGGNSPVQEFTVPGSSSTATISGLSPGVDYTITVYAYHSYDDIFLADSPSSINYRT
2500 nM	SEQ ID NO 93 (designed binder) VSSVPTKLEVVAATPTSLLISWDASSSSVSYYEITYGETGGNSPVQEFTVPGSSSTATISGLSPGVDYTITVIAFYSHDDIYISDSPSSINYRT
738 nM	SEQ ID NO 95 (designed binder) VSSVPTKLEVVAATPTSLLISWDASSSSVSHYAITYGETGGNSPVQEFTVPGSSSTATISGLSPGVDYTITVFAYYSYDDIYYAYSPSSINYRT
2200 nM	SEQ ID NO 96 (designed binder) VSSVPTKLEVVAATPTSLLISWDASSSSVSHYDITYGETGGNSPVQEFTVPGSSSTATISGLSPGVDYTITVHAYYSYDDIYVAISPSSINYRT
284 nM	SEQ ID NO 91 (designed binder) VSSVPTKLEVVAATPTSLLISWDASSSSVSHYEITYGETGGNSPVQEFTVPGSSSTATISGLSPGVDYTITVAAYHSYHDIFYAVSPSSINYRT
145 nM	SEQ ID NO 90 (designed binder) VSSVPTKLEVVAATPTSLLISWDASSSSVSHYEITYGETGGNSPVQEFTVPGSSSTATISGLSPGVDYTITVYAYYSHEDIFYAVSPSSINYRT

Biological target: human small ubiquitin-like modifier 1 (human) (UniProt P63165)
Test: ratio of the apparent affinity for hSUMO1 to that for ySUMO in the titration phage ELISA of FIGS. 25A and 26A; group Low Specificity (0-10)

Binder	Specificity Factor
hS1MB-14 (designed binder) VSSVPTKLEVVAATPTSLLISWDASSSSVSHYHITYGETGGNSPVQEFTVPGSSSTATISGLSPGVDYTITVYAYYSYNDIFFADSPSSINYRT	2.6
hS1MB-12 (designed binder) VSSVPTKLEVVAATPTSLLISWDASSSSVSYYEITYGETGGNSPVQEFTVPGSSSTATISGLSPGVDYTITVFAYHSDDDLYYAFSPSSINYRT	4.4
hS1MB-15 (designed binder) VSSVPTKLEVVAATPTSLLISWDASSSSVSYYDITYGETGGNSPVQEFTVPGSSSTATISGLSPGVDYTITVYAYYSYDDIYFADSPSSINYRT	2.9
hS1MB-13 (designed binder) VSSVPTKLEVVAATPTSLLISWDASSSSVSYYAITYGETGGNSPVQEFTVPGSSSTATISGLSPGVDYTITVYAYHSYDDIYFAFSPSSINYRT	1.4

Further lines, results first:

Specificity Factor	Binder
0.7	hS1MB-21 (designed binder) VSSVPTKLEVVAATPTSLLISWDASSSSVSHYGITYGETGGNSPVQEFTVPGSSSTATISGLSPGVDYTITVYAYYSYHDIFYALSPSSINYRT
8	hS1MB-19 (designed binder) VSSVPTKLEVVAATPTSLLISWDASSSSVSHYGITYGETGGNSPVQEFTVPGSSSTATISGLSPGVDYTITVYAYYSYDDIFVAVSPSSINYRT
0.6	hS1MB-22 (designed binder) VSSVPTKLEVVAATPTSLLISWDASSSSVSHYAITYGETGGNSPVQEFTVPGSSSTATISGLSPGVDYTITVYAFYSYYDIFYSDSPSSINYRT

Biological target: human small ubiquitin-like modifier 1 (human) (UniProt P63165)
Test: SPR

Kd	fold discrimination in affinity (ySUMO over hSUMOs)	Binder
54000 nM	> 600 fold	ySMB-1 (designed binder) VSSVPTKLEVVAATPTSLLISWDASSSSVSYYRITYGETGGNSPVQEFTVPGSSSTATISGLSPGVDYTITVYAYYSYYDLYYSYSPSSINYRT

Biological target: human small ubiquitin-like modifier 1 (human) (UniProt P63165)
Test: ratio of the apparent affinity for hSUMO1 to that for ySUMO in the titration phage ELISA of FIGS. 25A and 26A; group High Specificity (>100)

Binder	Specificity Factor
hS1MB-7 (designed binder) VSSVPTKLEVVAATPTSLLISWDASSSSVSYYEITYGETGGNSPVQEFTVPGSSSTATISGLSPGVDYTITVIAFYSHDDIYISDSPSSINYRT	> 100
hS1MB-16 (designed binder) VSSVPTKLEVVAATPTSLLISWDASSSSVSHYDITYGETGGNSPVQEFTVPGSSSTATISGLSPGVDYTITVYAYNSHDDIFIAYSPSSINYRT	> 100

Next, values leading:

Specificity Factor	Binder
> 100	hS1MB-17 (designed binder) VSSVPTKLEVVAATPTSLLISWDASSSSVSYYEITYGETGGNSPVQEFTVPGSSSTATISGLSPGVDYTITVSAYNSYDDIYYAVSPSSINYRT
> 100	hS1MB-20 (designed binder) VSSVPTKLEVVAATPTSLLISWDASSSSVSHYSITYGETGGNSPVQEFTVPGSSSTATISGLSPGVDYTITVYAYDSIEDIYIADSPSSINYRT
> 100	hS1MB-18 (designed binder) VSSVPTKLEVVAATPTSLLISWDASSSSVSYYEITYGETGGNSPVQEFTVPGSSSTATISGLSPGVDYTITVFAYDSVEDIYVSYSPSSINYRT

Biological target: human small ubiquitin-like modifier 1 (human) (UniProt P63165)
Test: SPR (Biacore 2000), monobody immobilised via His-tag on NTA surface, hSUMO1 flowed over it

Kd	Binder
2500 nM	hS1MB-7 (designed binder) VSSVPTKLEVVAATPTSLLISWDASSSSVSYYEITYGETGGNSPVQEFTVPGSSSTATISGLSPGVDYTITVIAFYSHDDIYISDSPSSINYRT
519 nM	hS1MB-3 (designed binder) VSSVPTKLEVVAATPTSLLISWDASSSSVSHYAITYGETGGNSPVQEFTVPGSSSTATISGLSPGVDYTITVYAYHSYDDIFLADSPSSINYRT

Biological target: human small ubiquitin-like modifier 1 (human) (UniProt P63165)
Test: ratio of the apparent affinity for hSUMO1 to that for ySUMO in the titration phage ELISA of FIGS. 25A and 26A; group Moderate Specificity (10-100)

Specificity Factor	Binder
13.1	hS1MB-11 (designed binder) VSSVPTKLEVVAATPTSLLISWDASSSSVSNYAITYGETGGNSPVQEFTVPGSSSTATISGLSPGVDYTITVYAYYSYDDIFVADSPSSINYRT
52.5	hS1MB-23 (designed binder) VSSVPTKLEVVAATPTSLLISWDASSSSVSHYEITYGETGGNSPVQEFTVPGSSSTATISGLSPGVDYTITVYAYYSHDDIFYAFSPSSINYRT
12.3	hS1MB-3 (designed binder) VSSVPTKLEVVAATPTSLLISWDASSSSVSHYAITYGETGGNSPVQEFTVPGSSSTATISGLSPGVDYTITVYAYHSYDDIFLADSPSSINYRT

Source: US20140057807A1
